We go through four substances from publication PMC6156451 (Frontiers in Molecular Neuroscience, 2018).

Assay [1] deals with ROS-GC1 peptide 1 peptide 1 (Bos taurus) (UniProt P55203). Kind of assay: fluorescence.
Assay [2] has as its target myristoylated guanylyl cyclase-activating protein 2 (GCAP-2), bovine (bovine) (UniProt P51177). The assay can be described thus: other fluorescence titration; GCAP-2 mixed with increasing concentrations of peptide in 20 mM HEPES pH 7.5, 20°C; excitation 280 nm, emission 350 nm; calcium not controlled, ~2 uM.
The target is the same in assay [3]. The assay can be described thus: SPR; GCAP-2 immobilised by amine coupling on 2D CMD sensor slides; peptides injected at 0.5-40 uM (peptide 3: 5-40 uM); 20 mM HEPES, 0.05% Tween, pH 7.5, 22°C, 30 ul/min; two-state model with equimolar binding; calcium not controlled, ~2 uM.
In assay [4] the target is T1, GCAP-2 (Bos taurus, UniProt P51177).
T1 construct: made in house; host or cells: E. coli BL21 (DE3), vector pET-11a, co-expressed with yeast N-myristoyltransferase I (pBB131)
T1 sequence (P51177 1-204): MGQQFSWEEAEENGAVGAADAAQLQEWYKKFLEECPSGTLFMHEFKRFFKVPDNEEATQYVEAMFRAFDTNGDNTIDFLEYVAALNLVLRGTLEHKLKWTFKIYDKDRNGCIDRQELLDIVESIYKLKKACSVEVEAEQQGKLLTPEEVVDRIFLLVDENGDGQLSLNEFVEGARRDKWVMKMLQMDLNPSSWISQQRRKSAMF
The assay can be described thus: Fluorescence spectroscopy titration of ROS-GC peptides to GCAP-2. Set-up: species or system bovine. The settings on record: excitation 280 nm, emission 350 nm, 20 mM HEPES pH 7.5, 20°C, calcium ~2 μM, read-out: KD1 (first binding event).
Experimental: Fluorescence measurements were carried out with a Jasco Spectrofluorometer FP-8200, equipped with a Jasco MCB-100 Mini Circulation Bath (20°C, xenon lamp, data interval 0.5 nm, accumulation number 3). The excitation wavelength was 280 nm, fluorescence emission was recorded at 350 nm to exclude self-fluorescence of non-bound peptide. […] As a negative control, separate recordings were performed with N-acetyl-L-tryptophanamide or N-acetyl-L-tyrosinamide, respectively.
A wavelength of 350 nm was chosen to rule out that changes in fluorescence originate from an increased concentration of non-bound peptide.

Assay [5] deals with T1, GCAP-2. Kind of assay: Surface plasmon resonance (SPR), GCAP-2/ROS-GC peptide interaction. The format is binding, bovine.

No end group written: not given here.

ROS-GC1 peptide 1 peptide 1 (Bos taurus), sequence (P55203 57-1110): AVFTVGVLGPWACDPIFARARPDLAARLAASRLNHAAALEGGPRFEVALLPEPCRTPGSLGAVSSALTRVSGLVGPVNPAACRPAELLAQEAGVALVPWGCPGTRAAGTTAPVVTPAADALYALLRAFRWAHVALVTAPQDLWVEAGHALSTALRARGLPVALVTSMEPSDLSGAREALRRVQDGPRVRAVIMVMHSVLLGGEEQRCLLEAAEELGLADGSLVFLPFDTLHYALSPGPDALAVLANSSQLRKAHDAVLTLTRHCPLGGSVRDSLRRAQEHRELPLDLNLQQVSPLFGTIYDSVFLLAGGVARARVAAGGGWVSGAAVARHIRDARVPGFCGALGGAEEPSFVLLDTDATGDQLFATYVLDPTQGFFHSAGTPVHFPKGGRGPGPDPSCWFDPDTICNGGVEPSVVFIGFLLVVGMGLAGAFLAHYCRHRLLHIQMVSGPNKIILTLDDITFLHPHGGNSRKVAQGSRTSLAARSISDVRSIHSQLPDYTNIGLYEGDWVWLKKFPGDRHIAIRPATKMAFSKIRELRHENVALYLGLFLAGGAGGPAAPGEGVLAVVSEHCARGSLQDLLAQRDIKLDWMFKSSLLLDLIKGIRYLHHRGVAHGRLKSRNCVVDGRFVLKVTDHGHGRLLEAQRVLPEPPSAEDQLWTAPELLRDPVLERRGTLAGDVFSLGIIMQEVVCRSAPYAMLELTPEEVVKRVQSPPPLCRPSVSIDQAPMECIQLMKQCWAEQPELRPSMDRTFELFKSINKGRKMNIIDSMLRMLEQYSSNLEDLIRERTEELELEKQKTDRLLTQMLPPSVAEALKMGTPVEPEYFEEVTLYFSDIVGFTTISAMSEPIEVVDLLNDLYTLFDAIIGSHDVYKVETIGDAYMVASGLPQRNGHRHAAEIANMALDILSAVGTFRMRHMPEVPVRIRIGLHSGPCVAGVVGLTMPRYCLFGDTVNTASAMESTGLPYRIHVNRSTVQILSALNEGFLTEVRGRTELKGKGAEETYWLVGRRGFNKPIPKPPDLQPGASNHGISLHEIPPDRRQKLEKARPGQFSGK

Turning to GCAP-2 (from UniProt P51177), the Kd in assay [1] worked out at 244 µM.

With “ROS-GC1 peptide 1 (aa 965-981), postulated GCAP-2 binding motif”, in assay [2], the KD1 (first binding event) amounted to 4.2 µM and the KD2 (second binding event) worked out at 244 µM. The Kd in assay [3] came out at 1.12 µM.

In the case of “ROS-GC1 peptide 2 (aa 942-981), N-terminal extension of peptide 1 with a part of the catalytic domain”, the KD1 (first binding event; set by extrapolation) in assay [2] was 1 µM. Also, the Kd in assay [3] was determined as 3 µM.

YRIHVNRSTVQILSALN [Peptide 1]: the Kd is 4.2 µM in assay [4] and 2.36 µM in assay [5].
